Data: PMC5385555, “Molecular basis for the behavioral effects of the odorant degrading enzyme Esterase 6 in Drosophila” (Scientific Reports, 2017)

Experiments:
[1] = substrate: CC(=O)Oc1ccc([N+](=O)[O-])cc1; assay: UV/vis substrate-loss assay; assay type: biochemical, Drosophila melanogaster; settings: Tris-HCl pH 8.0, 25 °C, 5% ethanol (Table S1), Fig. S1 without ethanol
[2] = substrate: CC(=O)Oc1ccc2ccccc2c1; assay: UV/vis substrate-loss assay; assay type: biochemical, Drosophila melanogaster; settings: Tris-HCl pH 8.0, 25 °C, 5% ethanol

B1: EST6 (wildtype EST6, EST6-WT) (Drosophila melanogaster) (protein)
chain: SDTDDPLLVQLPQGKLRGRDNGSYYSYESIPYAEPPTGDLRFEAPEPYKQKWSDIFDATKTPVACLQWDQFTPGANKLVGEEDCLTVSVYKPKNSKRNSFPVVAHIHGGAFMFGAAWQNGHENVMREGKFILVKISYRLGPLGFVSTGDRDLPGNYGLKDQRLALKWIKQNIASFGGEPQNVLLVGHSAGGASVHLQMLREDFGQLARAAFSFSGNALDPWVIQKGARGRAFELGRNVGCESAEDSTSLKKCLKSKPASELVTAVRKFLIFSYVPFAPFSPVLEPSDAPDAIITQDPRDVIKSGKFGQVPWAVSYVTEDGGYNAALLLKERKSGIVIDDLNERWLELAPYLLFYRDTKTKKDMDDYSRKIKQEYIGNQRFDIESYSELQRLFTDILFKNSTQESLDLHRKYGKSPAYAYVYDNPAEKGIAQVLANRTDYDFGTVHGDDYFLIFENFVRDVEMRPDEQIISRNFINMLADFASSDNGSLKYGECDFKDNVGSEKFQLLAIYIDGCQNRQHVEFP
notes: wildtype, baculovirus expressed, semi-purified; N-terminal signal peptide of 63 bp (21 residues) in the gene
Question: With B1 as the protein, how does the Km [1] read?
Answer: 269 ± 18 µM

Question: What about the kcat [1] of the same protein?
Answer: 105 ± 2 s-1 (head prints M.s-1)

Question: And the Km [2]?
Answer: 121 ± 6 µM

Question: And the kcat [2]?
Answer: 135 ± 2 s-1 (head prints M.s-1)
